# Results from publication PMC7202667, “UNBRANCHED3 Expression and Inflorescence Development is Mediated by UNBRANCHED2 and the Distal Enhancer, KRN4, in Maize”.
# T1: OBF1, MBP fusion (Zea mays, UniProt P24068 1-151)
# T1 sequence: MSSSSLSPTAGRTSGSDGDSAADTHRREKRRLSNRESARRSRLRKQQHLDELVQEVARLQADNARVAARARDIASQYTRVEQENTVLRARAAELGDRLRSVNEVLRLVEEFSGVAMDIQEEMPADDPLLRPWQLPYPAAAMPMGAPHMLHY
# T2: OBF4, MBP fusion (Zea mays, UniProt B4FFB3 1-396)
# T2 sequence: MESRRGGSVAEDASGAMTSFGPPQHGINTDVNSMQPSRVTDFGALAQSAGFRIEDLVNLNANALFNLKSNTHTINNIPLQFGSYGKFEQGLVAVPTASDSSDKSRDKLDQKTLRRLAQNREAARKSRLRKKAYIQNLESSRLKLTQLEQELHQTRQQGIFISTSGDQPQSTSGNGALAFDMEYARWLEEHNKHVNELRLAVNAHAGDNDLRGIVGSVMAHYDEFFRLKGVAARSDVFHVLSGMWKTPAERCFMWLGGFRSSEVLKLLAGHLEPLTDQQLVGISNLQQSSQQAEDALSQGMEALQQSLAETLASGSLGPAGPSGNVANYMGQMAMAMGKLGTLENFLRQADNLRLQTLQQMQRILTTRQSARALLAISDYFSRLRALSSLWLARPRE
# Columns and labels:
# OBF1, MBP fusion = target: T1, OBF1, MBP fusion; test: EMSA; poly(dI-dC), 5 mM MgCl2; EMSA: 10 mM Tris pH 7.5, 50 mM KCl, 1 mM DTT, 5 mM MgCl2, 2.5% glycerol, poly(dI-dC), 0.05% NP-40; 20-40 ng protein, probe 10 fM (so in the source); room temperature; details: protein: recombinant; tags: N-MBP (pMAL-c2x); chain copies: 2; label: 5'-biotin; blunt
# OBF4, MBP fusion = target: T2, OBF4, MBP fusion; test: as above; details: protein: recombinant; tags: N-MBP (pMAL-c2x); chain copies: 2; label: 5'-biotin; blunt
binder,measurement,setting,value
3xE1 probe (3E1X) (dsDNA) DNA 1: ACATGGCACGACACGTAGTGAACCACATGGCACGACACGTAGTGAACCACATGGCACGACACGTAGTGAACC DNA 2: GGTTCACTACGTGTCGTGCCATGTGGTTCACTACGTGTCGTGCCATGTGGTTCACTACGTGTCGTGCCATGT,binding result,"OBF1, MBP fusion",binds
same,binding result,"OBF4, MBP fusion",binds
